Measured values from US20250034273A1 (ARBELE, published 2025).

Key:
[1] = target: T1, PD1 expressed on HEK293F cells (UniProt Q15116 25-288, limits assumed); test: flow cytometry binding, receptor occupancy (0 to 1) on HEK293F cells expressing PD1 against Antibody (nM)
T1 construct: whole, on cells; also called HEK293F expressing PD1; HKE293F expressing PD1

[2] = target: T2, human Trop2 (human, UniProt P09758 27-274, limits assumed); test: absorbance assay (Net absorbance, Abs 450) on 'Trop2-hFc'; one unprinted antibody concentration
T2 sequence (looked up): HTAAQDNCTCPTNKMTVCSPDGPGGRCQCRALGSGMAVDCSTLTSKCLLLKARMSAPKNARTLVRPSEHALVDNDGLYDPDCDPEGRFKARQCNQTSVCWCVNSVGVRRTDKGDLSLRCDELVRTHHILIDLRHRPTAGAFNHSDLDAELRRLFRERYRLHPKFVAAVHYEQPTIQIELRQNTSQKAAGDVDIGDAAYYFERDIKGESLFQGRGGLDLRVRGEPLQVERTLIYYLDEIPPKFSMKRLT

[3] = target: human CD3 (human); test: Octet sensorgrams (nm against time), panel 'Human CD3', association to about 900 s, dissociation to 1800 s
Chain of human CD3 (human) (chain, as listed by the source): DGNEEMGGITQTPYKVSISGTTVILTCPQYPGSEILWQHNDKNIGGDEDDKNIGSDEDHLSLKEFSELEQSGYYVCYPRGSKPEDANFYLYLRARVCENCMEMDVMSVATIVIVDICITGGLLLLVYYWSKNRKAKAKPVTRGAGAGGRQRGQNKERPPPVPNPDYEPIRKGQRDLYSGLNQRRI

[4] = target: T3, monkey CD3 (monkey); test: Octet sensorgrams (nm against time), panel 'Cynomolgus CD3', association to about 900 s, dissociation to 1800 s
T3 chain: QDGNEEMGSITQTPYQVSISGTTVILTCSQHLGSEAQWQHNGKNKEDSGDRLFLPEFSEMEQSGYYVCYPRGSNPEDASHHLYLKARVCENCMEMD

[5] = target: T2, human Trop2; test: Octet (BLI)
[6] = target: T4, Trop2 on cells (Trop2-positive SW480 cells; Trop2-expressing HEK293 cells) (UniProt P09758 27-323, limits assumed); test: receptor occupancy (%) on Trop2-positive SW480 cells against ARB203 (nM)
T4 construct: whole, on cells
T4 sequence (looked up): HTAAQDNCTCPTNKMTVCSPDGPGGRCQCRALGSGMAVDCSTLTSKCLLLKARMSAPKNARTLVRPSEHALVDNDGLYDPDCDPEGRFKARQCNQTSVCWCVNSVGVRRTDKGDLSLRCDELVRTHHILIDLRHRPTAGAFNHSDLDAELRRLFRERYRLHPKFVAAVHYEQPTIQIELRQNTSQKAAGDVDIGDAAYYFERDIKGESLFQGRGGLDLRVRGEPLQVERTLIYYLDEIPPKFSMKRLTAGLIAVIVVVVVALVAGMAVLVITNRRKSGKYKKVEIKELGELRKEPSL

[7] = target: T4, Trop2 on cells (Trop2-positive SW480 …); test: receptor occupancy (Percentage) on DLD1/DLD1-2C7 cancer cells against ARB203 (nM); Trop2 arm of ARB203
[8] = target: human CD3 (human); test: receptor occupancy (Percentage) on PBMC against ARB203 (nM); the legend speaks of occupancy on T cells, the CD3 arm of ARB203

T1 sequence (Q15116 25-288 limits assumed): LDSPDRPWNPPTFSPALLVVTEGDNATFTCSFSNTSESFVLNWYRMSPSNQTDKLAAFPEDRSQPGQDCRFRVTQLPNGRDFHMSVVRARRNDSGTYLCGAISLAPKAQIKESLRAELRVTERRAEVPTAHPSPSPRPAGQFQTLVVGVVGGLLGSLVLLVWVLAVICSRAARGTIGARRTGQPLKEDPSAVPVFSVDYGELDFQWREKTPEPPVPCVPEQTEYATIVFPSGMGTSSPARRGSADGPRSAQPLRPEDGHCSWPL

B1: ARB204, CDH17-PD1 bispecific antibody (anti-CDH17 10C12 Fab, anti-PD1 1C8 scFv) (bispecific antibody, human IgG1, kappa)
heavy: EVQLVESGGGLVQPGGSLRLSCAASGFTFSSYAMSWVRQTPGKGLEWVAVIDSNGGSTYYPDTVKDRFTISRDNSKNTLYLQMNSLRAEDTAVYYCSSYTNLGAYWGQGTLVTVSAASTKGPSVFPLAPSSKSTSGGTAALGCLVKDYFPEPVTVSWNSGALTSGVHTFPAVLQSSGLYSLSSVVTVPSSSLGTQTYICNVNHKPSNTKVDKRVEPKSCDKTHTCPPCPAPELLGGPSVFLFPPKPKDTLMISRTPEVTCVVVDVSQEDPEVQFNWYVDGVEVHNAKTKPREEQFNSTYRVVSVLTVLHQDWLNGKEYKCKVSNKGLPSSIEKTISKAKGQPREPQVYTLPPSQEEMTKNQVSLTCLVKGFYPSDIAVEWESNGQPENNYKTTPPVLDSDGSFFLYSRLTVDKSRWQEGNVFSCSVMHEALHNHYTQKSLSLSLGKPAGGGGSEVQLVESGGGLVQPGGSLRLSCAASGFTFSRSTMSWVRQAPGKGLEWVATISGGGLNTYFPDSVKGRFTISRDNSKNTLYLQMNSLRAEDTAVYYCTRNSNSYYFALDYWGQGTLVTVSSGGGGSGGGGSGGGGSEIVLTQSPATLSLSPGERATLSCRASESVDNSGVSFMNWYQQKPGQAPRLLIYIASNQVSGIPARFSGSGSGTDFTLTISSLEPEDFAVYYCQQIKEVPWTFGGGTKVEIK
light: DIQMTQSPSSLSASVGDRVTITCRASQDISGYLNWLQQKPGGAIKRLIYTTSTLDSGVPKRFSGSGSGTDFTLTISSLQSEDFATYYCLQYASSPFTFGGGTKVEIKRTVAAPSVFIFPPSDEQLKSGTASVVCLLNNFYPREAKVQWKVDNALQSGNSQESVTEQDSKDSTYSLSSTLTLSKADYEKHKVYACEVTHQGLSSPVTKSFNRGEC
notes: IgG4 Fc with IgG1 hinge, bivalent to each target
For B1, the EC50 [1] was 0.217 nM.

B2: ARB203-h3G8 v1 (bispecific antibody)
heavy: EVQLVESGGGLVQPGGSLRLSCAASGFTFSTYTMSWVRQTPAKGLVWVSTINSDGYNIYYSDSMKGRFTISRDNAKYTLYLQMNSLRAEDTAMYYCARCSYYSYDYFDYWGQGTLVTVSSASTKGPSVFPLAPSSKSTSGGTAALGCLVKDYFPEPVTVSWNSGALTSGVHTFPAVLQSSGLYSLSSVVTVPSSSLGTQTYICNVNHKPSNTKVDKRVEPKSCDKTHTCPPCPAPELLGGPSVFLFPPKPKDTLMISRTPEVTCVVVDVSQEDPEVQFNWYVDGVEVHNAKTKPREEQFNSTYRVVSVLTVLHQDWLNGKEYKCKVSNKGLPSSIEKTISKAKGQPREPQVYTLPPSQEEMTKNQVSLTCLVKGFYPSDIAVEWESNGQPENNYKTTPPVLDSDGSFFLYSRLTVDKSRWQEGNVFSCSVMHEALHNHYTQKSLSLSLGKPAGGGGSQVQLVQSGAEVKKPGASVKVSCKASGYTFTSYYMHWVRQAPGQGLEWMGWIYPENVNTNYAQKFQGRVTMTRDTSISTAYMELSRLRSDDTAVYYCARDSYGSYFFDYWGQGTLVTVSSGGGGSGGGGSGGGGSDIVMTQSPDSLAVSLGERATINCKSSQSLLNSRTRKNYLAWYQQKPGQPPKLLIYWASTRESGVPDRFSGSGSGTDFTLTISSLQAEDVAVYYCTQSFILRTFGQGTKVEIK
light: DIQMTQSPSSLSASVGDRVTITCRASENIDNYLAWYQQKQGKVPKLLIYAATNLADGMPSRFSGSGSGTDFTLTISSLQPEDVATYYCQHYYSNQLTFGQGTKLEIKRTVAAPSVFIFPPSDEQLKSGTASVVCLLNNFYPREAKVQWKVDNALQSGNSQESVTEQDSKDSTYSLSSTLTLSKADYEKHKVYACEVTHQGLSSPVTKSFNRGEC
notes: also called h8B5-h3G8 V1; h8B5-h3G8v1
B2: binds [2].

B3: h8B5-h3G8v2, bispecific anti-Trop2 (h8B5) / anti-CD3 (h3G8 scFv V2, VL-VH with 3xGS linker) (bispecific antibody, human IgG1, kappa)
heavy: EVQLVESGGGLVQPGGSLRLSCAASGFTFSTYTMSWVRQTPAKGLVWVSTINSDGYNIYYSDSMKGRFTISRDNAKYTLYLQMNSLRAEDTAMYYCARCSYYSYDYFDYWGQGTLVTVSSASTKGPSVFPLAPSSKSTSGGTAALGCLVKDYFPEPVTVSWNSGALTSGVHTFPAVLQSSGLYSLSSVVTVPSSSLGTQTYICNVNHKPSNTKVDKRVEPKSCDKTHTCPPCPAPELLGGPSVFLFPPKPKDTLMISRTPEVTCVVVDVSQEDPEVQFNWYVDGVEVHNAKTKPREEQFNSTYRVVSVLTVLHQDWLNGKEYKCKVSNKGLPSSIEKTISKAKGQPREPQVYTLPPSQEEMTKNQVSLTCLVKGFYPSDIAVEWESNGQPENNYKTTPPVLDSDGSFFLYSRLTVDKSRWQEGNVFSCSVMHEALHNHYTQKSLSLSLGKPAGGGGSDIVMTQSPDSLAVSLGERATINCKSSQSLLNSRTRKNYLAWYQQKPGQPPKLLIYWASTRESGVPDRFSGSGSGTDFTLTISSLQAEDVAVYYCTQSFILRTFGQGTKVEIKGGGGSGGGGSGGGGSQVQLVQSGAEVKKPGASVKVSCKASGYTFTSYYMHWVRQAPGQGLEWMGWIYPENVNTNYAQKFQGRVTMTRDTSISTAYMELSRLRSDDTAVYYCARDSYGSYFFDYWGQGTLVTVSS
light: DIQMTQSPSSLSASVGDRVTITCRASENIDNYLAWYQQKQGKVPKLLIYAATNLADGMPSRFSGSGSGTDFTLTISSLQPEDVATYYCQHYYSNQLTFGQGTKLEIKRTVAAPSVFIFPPSDEQLKSGTASVVCLLNNFYPREAKVQWKVDNALQSGNSQESVTEQDSKDSTYSLSSTLTLSKADYEKHKVYACEVTHQGLSSPVTKSFNRGEC
notes: IgG4 Fc with IgG1 hinge, scFv at the heavy chain C-terminus
Binder B3 has a Kd [3] of 3.7 nM and a Kd [4] of 0.802 nM.

B4: ARB203, bispecific antibody of anti-Trop2 (h8B5) and anti-CD3 (UCHT1) (bispecific antibody, human IgG1, kappa)
heavy: EVQLVESGGGLVQPGGSLRLSCAASGFTFSTYTMSWVRQTPAKGLVWVSTINSDGYNIYYSDSMKGRFTISRDNAKYTLYLQMNSLRAEDTAMYYCARCSYYSYDYFDYWGQGTLVTVSSASTKGPSVFPLAPSSKSTSGGTAALGCLVKDYFPEPVTVSWNSGALTSGVHTFPAVLQSSGLYSLSSVVTVPSSSLGTQTYICNVNHKPSNTKVDKRVEPKSCDKTHTCPPCPAPELLGGPSVFLFPPKPKDTLMISRTPEVTCVVVDVSQEDPEVQFNWYVDGVEVHNAKTKPREEQFNSTYRVVSVLTVLHQDWLNGKEYKCKVSNKGLPSSIEKTISKAKGQPREPQVYTLPPSQEEMTKNQVSLTCLVKGFYPSDIAVEWESNGQPENNYKTTPPVLDSDGSFFLYSRLTVDKSRWQEGNVFSCSVMHEALHNHYTQKSLSLSLGKPAGGGGSEVQLVESGGGLVQPGGSLRLSCAASGYSFTGYTMNWVRQAPGKGLEWVALINPYKGVSTYNQKFKDRFTISVDKSKNTAYLQMNSLRAEDTAVYYCARSGYYGDSDWYFDVWGQGTLVTVSSGGGGSGGGGSGGGGSDIQMTQSPSSLSASVGDRVTITCRASQDIRNYLNWYQQKPGKAPKLLIYYTSRLESGVPSRFSGSGSGTDYTLTISSLQPEDFATYYCQQGNTLPWTFGQGTKVEIK
light: DIQMTQSPSSLSASVGDRVTITCRASENIDNYLAWYQQKQGKVPKLLIYAATNLADGMPSRFSGSGSGTDFTLTISSLQPEDVATYYCQHYYSNQLTFGQGTKLEIKRTVAAPSVFIFPPSDEQLKSGTASVVCLLNNFYPREAKVQWKVDNALQSGNSQESVTEQDSKDSTYSLSSTLTLSKADYEKHKVYACEVTHQGLSSPVTKSFNRGEC
notes: IgG4 Fc with IgG1 hinge; Bivalent Fab to Trop2 and bivalent scFv to CD3 at the heavy chain C-terminus
In the case of B4, the Kd [5] is reported as no more than 0.001 nM, the EC50 [6] is reported as 0.155 nM and the “EC50 (read off the curve)” value [7] is reported as roughly 0.4 nM. It also gave an EC50 [8] of 20.9 nM.
